# Assay: yeast display, Sf9 membrane polyspecificity reagent, FACS + sequencing; frameworks hold sequencing errors
# Summary of the method: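 A synthetic nanobody library was expressed on Saccharomyces cerevisiae BJ5465 by galactose induction for 36–48 hours. The library was stained for 1 hour at 4 °C with 10% biotinylated, detergent-solubilized Sf9 membrane reagent and enriched with streptavidin microbeads before FACS. Low and high (top ~1%) gates were set on anti-HA fluorescence for expression and streptavidin fluorescence for reagent binding, and each polyreactivity label reflects the gate of origin.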
row,Sequence,polyreactivity (PSR sort gate)
1,QVQLVESGGGLVQAGGSLRLSCASSGSIFYQNAMGWYRQAPGKEREFVAAIRSSGSSTYYADSVKGRFTISRDNAKNTVYLQMNSLKPEDTAVYYCAAPSSRGQGRNFDYWGQGSQVTVSS,high polyreactivity
2,QVQLVESGGGLVQAGGSLRLSCASSGSIFYRNTMGWYRQAPGKEREFVAAIRTSGGSTYYADSVKGRFTISRDNAKNTVYLQMNSLKPEDTAVYYCAAEYRYGWAYRKGGDYWGQGTQVTVSS,high polyreactivity
3,QVQLVESGGGLVQAGGSLRLSCASSGSIIVVYGMGWYRQAPGKERELVAAISGGITNYADSVKGRFTISRDNAMNTVYLQMNILIPEDTAVYYCATVDGAYQYTYDYWGQGTQVTVSS,low polyreactivity
4,QVQLVESGGGLVQAGGSLRLSCASSGSTFAYYVMGRYIHAPGKEWELVAAISRGGRTYYADSVKGRFTISRDNAKNTVYFQLNSLKPEDTAVYYCAAEGASLAKYDYCGQGTQVTVSS,low polyreactivity
5,QVQLVESGGGLVQAGGSLRLSCASSGSTFKRYAMGWYRQAPGKERELVAAITLSGGNTYYADSVKGRFTISRDTAKNTVYLQLNSLKPEDTAVYYCAARRYRGYDYWGQGTQVTVTS,high polyreactivity
6,QVQLVESGGGLVQAGGSLRLSCASSGSTFKYYAMGWYRQSPGKERELVAAISGTGGSTYYADSVKGRFTISRDNAKNTVYLQMNCLKPEDTAVYYCNTYPYIRYDYWGQGTQVTVSS,high polyreactivity
7,QVQLVESGGGLVQAGGSLRLSCASSGSTFPEYAMGWYRQAPGKERELVAVISFGDGNTYYADSVKGRFTISRDNAKNTVYLQMNSLKPEDTAVYYCNAADDSVDQSVRTLRQYEYWGQGTQVTVSS,low polyreactivity
8,QVQLVESGGGLVQAGGSLRLSCASSGSTFPSNAMGWYRQAPGKERELVAAISRSGGSTYYADSVKGRFTISRDTAKNTVYLQMNSLKPEDTAVYYCAVQVRPNSGGTRIHRCGYDYWGQGTQVTVSS,low polyreactivity
9,QVQLVESGGGLVQAGGSLRLSCASSGSTFRLYAMGWYRQAPGKERELVATISTSGGRTYYADSVKGRLTISRDNAKNTVYLQMNSLKPEDTAVYYCAAYRGTLLTAYDYWGQGTQVTVSS,low polyreactivity
10,QVQLVESGGGLVQAGGSLRLSCASSGSTFRRNAMGWYRQAPGKERELVAAITWRGTSTYYADSVKGRFTISRDNAKNTVYLQMNSLKPEDTAVYYCNAVYNPYTTYSLSAYDYWGQGTQVTVSS,high polyreactivity
11,QVQLVESGGGLVQAGGSLRLSCASSGSTFSYYAMGWYRQATGKERELVAGITTNGGRTFYADSVKGRFTISRDNAKNTVYLQMNSLKPEDTAVYYCNARHGRHRRTRSYYWGQGTQVTVSS,high polyreactivity
12,QVQLVESGGGLVQAGGSLRLSCASSGSTLEVNAMGWYRQAPGKERELVAAITSGCSTNYADSVKGRFTISRDNAKNTVYLQMNSLKPEDTAVYYCNALAYYGMDYWGQGTQVTVSS,low polyreactivity
13,QVQLVESGGGLVQAGGSLRLSCASSGYIFEKYAMGWYRQAPGKERELVAAITVTGASTYYADSVKGRFTISRDNAKNTVYLQMNSMNPEDTAVYYCAAKTLSVGYVDPDYGRDYWGQGTQVTVSS,low polyreactivity
14,QVQLVESGGGLVQAGGSLRLSCASSGYIIIIYAMGWYRQAPGKERELVAAINRRGGSTYYADSVKGRFTISRDNAKNTVYLQMNSLKREDTEVYYCNAYPYFSRGPHLYDYWGQGTQVTGSS,high polyreactivity
15,QVQLVESGGGLVQAGGSLRLSCASSVRTLAYNSRGCYRQATGKERELVASITSGGSTNYADSVKGRFTISRDNAKNTVYLQMNSLKPEDTAVYYCNKDGKYHRVLYDYWGQGTQVTVSS,low polyreactivity
16,QVQLVESGGGLVQAGGSLRLSCASTGRIFDRNAMGWYRQAPGKVRELVAAISRRGGSTYYADSVKGRFTISRDNAKNNVYLQMNILKPEDTAVYYCNSGYSTRLHDYWGQGTQVTVSS,high polyreactivity
17,QVQLVESGGGLVQAGGSLRLSCASYGYIFWSYAMGWYRQAPGKERELVAAISASGGRTYYADSVKGRFTISRDNAKNTVYLQMNSLKPEDTAVYYCNADPGNHAYWYYGEFYYYTYDYWGQGTQVTVSS,low polyreactivity
18,QVQLVESGGGLVQAGGSLRLSCATSGRIFGTNAMGWYRQAPGKERELVADITSGGSTNYADSVKGRFTISRDNAKNTVYVQMNSLKPEDTAVYYCAADVIGDLRWYRDEYWGQGTQVTVSS,low polyreactivity
19,QVQLVESGGGLVQAGGSLRLSCAYSGLTFTWYAMGWYRQAPGKERELVAGISSGTSTNYADSVKGRFSISRDTAKNTVYLQMNSMKAEATAVYYCNAKQLGKFDYWGQGTHVTVSS,low polyreactivity
20,QVQLVESGGGLVQAGGSLRLSCCATGSIFYSYVMGWYRQAPGKEREWFAAISRNGQSTYYADSVKGRFTISLDNAKNTVYLQMNSLKPDDTAVYYCAARSRDKYDYWGQGTQVTVSS,high polyreactivity
21,QVQLVESGGGLVQAGGSLRLSCDASGFIFYGYVMGWYRQAPGKERELVAAITIGGSTNYADSVKGRFTISRDNAKNTVYLQRNSLKPEDTAVYYCAADQRSVTVGMDSWGQGTQVTVSS,low polyreactivity

row,Sequence,polyreactivity (PSR sort gate)
1,QVQLVESGGGLVQAGGSLRLSCDASGFTFYGYAMGWYRQAPGKERELVAAISGNGARTYYADSVKGRFTISRDNAKNTVYLQMNSLKPEDTAVYYCNADPATWWRNKEDYWGQGTQVTVSS,high polyreactivity
2,QVQLVESGGGLVQAGGSLRLSCDASGFTFYYYTMGWYRQAPGKERELVAAITWRGGSTNYADSVKGRFTISRDNAKNTVYVQMNSLKPEDTAVYYCAAVTYWFWPGMDYWGQGTQVTVSS,low polyreactivity
3,QVQLVESGGGLVQAGGSLRLSCDASGFTVVIYTMGWYRQAPGKERELVAAINWSGASTYYADSVKGRFTISRDNAKNTVYLQINSLKPEDTAVYYCNRVYVQQDFPYKIYPYNYWGQGTQVTVSS,high polyreactivity
4,QVQLVESGGGLVQAGGSLRLSCDASGGIFRFNSMGWYRQAPGKERELVAGISSTYYADSVKGRFTISRDNAKNTVYLQMNSLKPEDTAVYYCAAAGPEEHGYTYPGNNQMESWGQGTQVTVSS,low polyreactivity
5,QVQLVESGGGLVQAGGSLRLSCDASGGTFYRNAMGWYRQAHGKERELVAVISKRGTSTYYADSVKGRFTISRDNAKNTVYLQMNSLKPEDTAVYYCATVYYHLSPNRPYGYWGQGTQVTLSS,high polyreactivity
6,QVQLVESGGGLVQAGGSLRLSCDASGITFVRYTIRWYRQAPGKEREFVAGITRGGSTYYADSVKGRFTISPDNAKNNVFLQRNSLKPEDTAVYYCAARPRFLRASVEYDYWGQGTQVTVSS,high polyreactivity
7,QVQLVESGGGLVQAGGSLRLSCDASGLIFYSYAMGWYRQAPGKERELVAAISSRGGSTYYADSVKGRFTISRDNAKNTVYLQMNSLKQEDSAVYYCNAYFLLPHYDYWGQGTQVTVSS,low polyreactivity
8,QVQLVESGGGLVQAGGSLRLSCDASGRIFGRYAMGSYRPAPGNDRELVAAIPRNGGSTYADSVKGRFTISRDNAKNTVYLQMNSLKPEDTAVYYCAARNSYRYSKYDYWGQGTQVTVSS,high polyreactivity
9,QVQLVESGGGLVQAGGSLRLSCDASGRIFGYYAMGWYRQAPGKERELVAAISDGGSTDYADSVKGRFTISRDNAKNTVYLQMNSLKPEDTAVYYCNADRLYLYNVEYDYWGQGTQVTVSS,low polyreactivity
10,QVQLVESGGGLVQAGGSLRLSCDASGRIFRANAMGWYRQAPGKERELVASISRGGSTNYADSVKGRFTISRDNAKNTVYLQMNRLKPEDTAVYYCAARLGFYPYGYTSWYTVYYWGQGTQVTVSS,low polyreactivity
11,QVQLVESGGGLVQAGGSLRLSCDASGRIFRYNSMGWYRQAPGKEREFVAAITWRGGSTYYADSVKGRFTISRDNAKYNVYFQMNSLKPEDTAVYYCATRSPFGAAYEYGYWGQGTQVTVSS,high polyreactivity
12,QVQLVESGGGLVQAGGSLRLSCDASGRNFRRNAMGWYRQAPGKERELVAAITGGGSTNYADSVKGRFTISRDNAKNTVYLQMNSLKPEDTAVYYCAARRYGVRTYRFDSWGQGTQVTVSS,high polyreactivity
13,QVQLVESGGGLVQAGGSLRLSCDASGRTCFKYAMGWYRQAPGKERELVATITSSGGITYADSVKGRFTISRDNAKNTVYLQMNSLKPEDTAVYYCNARVWVTHYSELNYWGQGTQVTVSS,low polyreactivity
14,QVQLVESGGGLVQAGGSLRLSCDASGRTFGQNAMGWYRQAPGKERELVAGIDWSCGNTYYADSVKGRFTISRDNAKNTVYLQMNSLKPEDTAVYYCNTEGGRDTDWYDYWGQGTQVTVSS,low polyreactivity
15,QVQLVESGGGLVQAGGSLRLSCDASGRTFYRNDMGWYRQAPGKERELVAAISSGGSTTYADSVKGRFTISRDNAKNTVYLQMNSLKPEDTAVYYCAADFLDYWGVYGWAEYEYWGQGTQVTVSS,low polyreactivity
16,QVQLVESGGGLVQAGGSLRLSCDASGRTFYVYAMGWYRQAPGKERELVAAISSSGGSTYYADSVKGRFTISRDNAKNTVYLQMNSLKPEDTAVYYCAVVTPRYYGDTKYDYWGQGTQVTVSS,high polyreactivity
17,QVQLVESGGGLVQAGGSLRLSCDASGSIFAWYAMGWYRQAPGKERELVATITWSGGSTYYADSVKGRFTISRDNANNTVYLQMNSLKQEDTAVYYCAADRVWPYYQYDYWGQGTQVSVSS,low polyreactivity
18,QVQLVESGGGLVQAGGSLRLSCDASGSIFAYYAMRWYRPAPGKERELVAAISSRGGNTYYADSVKGRFTISRDYAKNTVYLQMNSLKPEDNAVYYCAAYSASYTFDYWGQGTQVTVSS,high polyreactivity
19,QVQLVESGGGLVQAGGSLRLSCDASGSIFDRYVMGWYRQAPGKERELVAAITTSGDGTYYADSVKGRFTISRDNAKNSVYLQMNSLKREDTAVYYCAAVRRSWKYSTSDYWGQGTQVTVSS,low polyreactivity
20,QVQLVESGGGLVQAGGSLRLSCDASGSIFPVYAMGWYRQAPGKERELVAAISSRGGRTYYADSVKGRFTISRDNAKNTVYLQMNSLKPEDNAVYYCATDYATYYRLPSQYDYWGQGTQVTVSS,low polyreactivity

# Reference: the nanobody polyreactivity screen of Harvey et al. (2022)
